In the domain aggregation screens of Martell et al. (2025):

Test: soluble fraction after stress (log2 fold change); higher = more stays soluble; pooled small domains, quantitative proteomics
Conditions: stress: 50 degC
Summary of the method: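 Pooled custom libraries of small protein domains were measured in a high-throughput format, with quantitative proteomics as the read-out. Each library was stressed at 50°C. Aggregation propensity is given as the base-two logarithm of the fold change in how much of each protein stays soluble after the stress. Higher values mean a larger share of the protein remains in solution.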

| Sequence | soluble fraction (log2) |
| --- | --- |
| HMNKAYLTVADMKKDKSLKNGDVVRTLGYYGYNDGDGAVYQIKDSHPEDYHIRLDNGLDAEQINY | 0.012 |
| HMTGGIWVQIQGAVERPGVYSLPRDSRLKDLLEAAGGFGRDADTEKVNQAARLEDGAMYRVPRQGEG | 0.352 |
| HMGPRVSAGPGRHRVQPGDTLDDIAARYRVSSRDLMLVNGLRNANHVEAGQTLKLPSNAVIA | 0.28 |
| HMQPFTELTPREREILGHLAEGQSNKVIARHLDISDGTVKLHVKAILRKLGVHSRVEAAVMAVEHGIR | -1.31 |
| HMTKLLSALQADKFAKKLANDTNFGSNFARMGESAMDFTNRLVEELQRDEGKVANYMPYLTKLGF | 0.312 |
| HMSGNPLDTYYSKWSAEIKKGSPNAVISKEGDKYYVSIPGENRMAIIYENPHLIRMVNATRNIHVE | -0.168 |
| HMSSDLESVIGTHSQEANFALRSWGWIQPDETWKNLRPDQVSQILERANEFMAKAIESFANAQSE | -0.14 |
| HMQERQREGFVQQLRGKYSGQVVMRLFPELQGKALGEFMRKFEAQWEDHEAVLAAMEAHEIESRLKVFK | -0.965 |
| HMSTILERLIMLQEQSGMNQKQLQKELGLSNSAFSDWKKGKGRPSVEALVRFSEFFGVSMDWLAFG | -2.09 |
| HMQVVVEKSKEKVIISGNQYYIHIVKKGETAFSIAKAYGITVDELVKNNPSAATVLKEGQALRIPVVE | 0.119 |
| HMPLTKKLETLFSLFPKYEKELKKKGVTRIHVWANYKEEYPDGIGRSQFIHYYSFWKKQVSP | -0.118 |
| HMLDVFSAEQVADVLSVSKRNLETWANNGKLIPDFIHGEVALYSKKQLEQFEQFQRFFNSSWDAERLIQP | -0.947 |
| HMISEAEGTILQLLKEADGTLPFTYKSDADEIKKVFGMSKKNFKRTLTELIEAKKIQLLDDAIVL | -0.459 |
| HMATAPQIRAIYALGSKLGINQNSREDNLHQLVYSITGKESIKGLTNYEAARVQSELANMERK | 0.22 |
| HMITNESEIERIVEAIISKNPESIAQYRSGITKVLGFLVGQVMKETKGRANPALVNRIIISKME | -0.281 |
| HMQSNIHELQKKLNEALQALSEDHRAVVTMFDIQGMPHAEISKILGVSEGTVRSRLYYAHQQLQGHL | -1.03 |
| HMARRKRDIDSDINVKVFEHWLDNLDSASRESFSAFAEETFSPIQVYLYAKFLGYESSIIAVDHWVAVAYP | 0.104 |
| HMTPADEAGNDLDIGQTVKILRRVSEGQYEVSYRGTTWQARALNAQAAVEPSFAVIGGKEGNILLVHL | 0.122 |
| HMDAINYEDFQLLIKQRGSFKVAFEDIMFSTKVAIEKKEDFYDFVTKLIDNGFNNMAYNYLEGFQD | -2.09 |

| Sequence | soluble fraction (log2) |
| --- | --- |
| HMVTQVDYGTFLTRIDEGKVKSVEIQDNQIAFTAIDEAGKENIYVTGKVNDPELVDRLLAADIEDFSQVIP | 0.12 |
| HMTLLVPASKEAILGGLAKIDALKVILKPEKDYSKTHAMTIGTKDEVIAKLDSFLSGMDSEKNQVLIQEYM | 0.107 |
| HMETSIQFIRLEIGHNHPWVNQTLKEIPTIPGTLIAAVLRGDEDQAIIPKGDTLLKEGDSVIIGAKEYQD | -0.919 |
| HMNNLVGKTKVLKSNTNIYAYKTMSGKFYSYLPNTRVRVLQDLGYINYIEVIATKRRGYVYENVY | -0.0937 |
| HMLQQNRAVEAEQLARKGLSYAQSNIQQAALWRLVAEATEQQGKVDAALNAKNKAMQLEMAG | 0.173 |
| HMSPAETGIYHILVENGKPNRHGLDATNKNENWLRQFLITQNTRLEDVFLLLADDGGGIRFFKSQ | -0.498 |
| HMAAINTYQVRKIYAIAGALGMKSRDGDDALHDLVFGMTGKQHISGLTSAEAYDVIAELEKKQ | -1.66 |
| HMDKPVIEDVSFDDLAYMVGERVIIRTHLRSTRDGELKSFNRAGILVSLRNRPGMELEIPRSTVASAQVVW | -2.45 |
| HMTGKVKWYDADKGFGFVTEDGGRDVYVRKSALPQGVETLKAGQRLEFGIAEGRRGPQALSVR | 0.0817 |
| HMSAGKKSFTNSEFRRFLDALGEGLIVKHKKLGEGVVVEIRGDKAVIQFGDEQRLYELKTLYEYDLLR | -0.12 |
| HMTPSTVQVHVAGAVKNPGVYVLLENARNIDAITAAGGATSEADLERINLSEFIRDGQRVYVPYKGDPI | 0.269 |
| HMQKIYTIARGDTLSHIVAGTLKQQGIAYTTGELYRLVNVVAQYNDILNPNRIYTGHQLDLTPLYSED | -0.103 |
| HMNSSLLGKRIKSLREDHDLTQKELSLMIGLTPKMISFYENNQRTPPLDILLKLAKIFEVSVDYLIGYA | -0.551 |
| HMNVAVGNSKLVGVAGERAYFVNGVGAAARTLSLQVGDALPTGEKVRRIERDGVTMTGASGDVRLSVLP | 0.0813 |
| HMDLRAPKPIKEMGEEYIKLYQYLRKGESENIVMSKMNISLDDYDYMRSEIEDKLSLYNMLDLLRKP | -0.718 |
| HMYKDVVVPNTVGDSEEKAYQTLSALGLVVNITYDEDASKSDRVVTSQNPTNKTIKEGESVNIVVNKQP | 0.0711 |
| HMDKSFLQSLHLIALGIVKNQMDPWELVNGWVEYYLKNKDKYIDHPNLKAVAVLKMKGLFIDHFRKS | -4.84 |
| HMSALTELPVKTVNGKKYHYYVVKQHETVYALSKRFGITPEQLIKYNPSAEDGLQIDQELLFPATEI | 0.161 |
| HMTKNEFLASFQNELQKRHIPDWEDVVSEYEQHFALKQADGFSEEEIAAKLGAPAELAAQFEA | -0.0437 |
